Measured values reported in the DeepSol protein solubility set.

assay: soluble on expression in E. coli; label from the status in PepcDB or PDB records

Row | Sequence | soluble on expression in E. coli
1 | MKRQRLVDKEWILQFPIEYFIHKEVHELNSTQAQRLVSLFKNGCETAYIARYRGDVHGYLAPEKIRKAMEAYVDAKNLNNKVSSAISTVTAKVAGAQEKIIVTERFKRCEEFDEVTDISKEYSTGTRKTKANIARALGLEPPAQSILDGNFVDFKSLLSNGLKTVKDVEEHLKICLADLINRDEEVRKVSANIDILKKECRVSAKLSREAEKNRKDLEKRGIIEKYKNFIGEKWNAEDIRDHTVSALNKGFDEGIITWKIECEFNDAKYIHPFSRKSVYFGMKNFYQEALAYSIKNYFIPRIERKMANHLKDKAKDRSIVLFGENVDQLLSQEGIRDKFVIALDPGRSKIKTAFLKPTGEVVDMSSFSIYGTRFDGGGVDLLKKWSQQTERKDIVFAIGNGTNTYNTQIAVSDMINSNVFPKEINVSYCIVPEHGASKYSCTPSAIEEFGENAEITEISAVSIGRRLIDPMSEYVKIEPQHLGKGQYQLSVDPKKLNESLLNVVRDRVSFNGVDLNTASKNLLQRINGLNEKTAKEIVQYREQNGRFRSRAELKEVKGIGALTFQQCAGFLTVSRPDDAEDGPPKKKFKKSSTSKEWNPFDETIVHPDDYRTGESLLGKLNVSIEDITGRIKSFSISRLTAEEAKVLNLLQNLTLKTKMKPPPPLRTKVGQIRDLAEGQRFTGTVSNKTDFGVFIDIGVGQDGLAHISHFKDGHYSLMLPSVNDSVEVVIDKIREDGKISLSPVY | not soluble
2 | MGQIIVSMYLSLDGVMEEPAWTAPYFNEEVAKFQSDLLFESEALLLGRVTYQGFAAAWPSMTDEEGFADKMNSIPKFVASTTLEKTEWNANLIKGNIVEEISKLKEQPGQNLLIYGSGELIQTLMQHDLIDEYHFMVNPVIVGSGKHLFKTGNDTKALKLIETRTTSSGVVILSYQPEKKE | not soluble
3 | MDIRYFGTTPRYSEAVGANGLIFLSGMVPENGETAAEQTADVLAQIDRWLAECGSDKAHVLDAVIYLRDMGDYAEMNGVWDAWVAAGRTPARACVEARLARPEWRVEIKITAVKRDAATA | not soluble
4 | MLQTLSTHLSSTSTSTTTPLLLLSKPFLSPSAKSQLSHSKPFNFPRTLKPISYYKPPMANILSKLGFGTRSPDPSTMDPTIPQGPDDDLPAPGQQFAQFGAGCFWGVELAFQRVPGVTKTEVGYTQGLLHNPTYEDVCTGTTNHNEVVRVQYDPKECSFDTLIDVLWARHDPTTLNRQGNDVGTQYRSGIYYYTPEQEKAAKESLERQQKLLNRKIVTEILPAKKFYRAEEYHQQYLAKGGRFGFMQSAEKGCNDPIRCYG | soluble
5 | MGSDKIHHHHHHMSRVETIINELSLIASNPRKAMEDYKKETGKGAVGIMPVYAPEELVHAAGFLPMGIWGGQKSISKARTYLPPFACSIMQSVMEMQLEGVYDDLEAVIFSVPCDTLKCLSQKWKGKSPVIVFTHPQNRKLEAANKFLVEEFKLVREKLEKILNVKITDEAINNSIEVYNENRKVMREFSDIAGQYSKTISAAARHAVIKARFFMEKSKHTAMVRELINELKAMPAEECGKKVVLTGIMAEPNEVLDILTENGFTVVADDLAQESRQFRLDVPAGTDPLYRLAEWWQQFDGCALATNVKKPRGQMLMDMVKKYDADAVIVCMMKFCDPEEFDYPIYYSQFEEAGIKSLYIEIDQESTSFEQIKTRVQSFGEML | not soluble
6 | MSEKLDLTRFEKKMVIRNIEEKDIDKIIDLQKDCFPGMEPWKREHLISHLEHFPEGQFCAEFEGEIIGSCSSLLINFDEYDDRHTWQDITDDGYITNHNPDGLNMYGIEVMVHPKYRRMKIGHRLYEARKDLARRLSLKSIIIGGRIPNYHKYAEEMTAREYVEQVTRHQIYDPVLSFQLMNGFTLMRINPNYLPDDTASIKY | not soluble
7 | MEIKEITIIGGYDKNGNPEPVREVTIKRGEIVGVVGPTGSGKSNLISDIEQLAQGDTISKRRILVNGEVPPIEMRRDPKKRRIAQLSQNMNFLADMTVEEFILMHAKSRGVYRENIVDEVIELANRLTGEPIKKDYNLTILSGGQSRSLMVADVAVISDSPIVLIDEIENAGIKKHEALELLAGYGKIVLVITHDPVLALMTDRRIVMRNGGMQKIIETTEEEKEISRKINEVDNWLLSLREKIRFGERLTHEDISLMVKG | soluble
8 | MHHHHHHVSLDKAVIARLRKGGEEFEVLVDPYLARDLKEGKEVNFEDLLAAEEVFKDAKKGERASVDELRKIFGTDDVFEIARKIILEGEVQITAEQRREMLEAKRKQIINFISRNTIDPRTNAPHPPSRIERALEEAKVHIDIFKSVEAQVKDIVKALKPILPLKFEEMEIAIKIPPEHTGRAISALYNFGGVTREEWQRDGSWICVMRIPSGMYGDLMDLLGKVAKGEALTKVLRRIG | soluble
9 | MGSDKIHHHHHHMARVKEEADRISEQANSHIENIRRQIEQEKNDWAAEKQKLIEEAKAEGFEQGVALGKAEAMKQYAELIGQANTITEMSRKAVEDKLEDANEEIVELAVALAKKVWQQKSDDKEAFLLLVQQVINEVKEYDDISIYVDPYYYETIFQQKDEIQQLLYKECRLGIYADEKAQKGTCYIETPFGRVDASVDTQLMQLKDKLLTALEAGAAE | not soluble
10 | MNSSTENVTLKLKSEQLDIAKQWIQTEDVKAYKETSSIQKTFTIPVEREELVIEKIPTASDDKKEVIRIPLSEEEVNFSKHRIILEDVSIYKNQIEDVRHIEETLKKENPKIETFGNAKVIKKLEHHHHHH | not soluble
11 | MLLEERLSQISQIIDKEGSATIDFLAQKLEVSKDTIRRDLIKLESRKKLHRVHGGAIPIGKEAEILNYEERSNISTSLKKKIASKIKNLIKDHSTLIFDSSTTVEVAIKQLDNFSISTITNSLTNAILLSKYEMATVQLLPGKLNKNQLFLYGAETVEKLSQYQVDFTILGVFALSNNGLFIHTEEEGLVKRKMIQQGKQVIAIADHTKLNKEGFFKICDLKEIDYLITDEKIEGELMNNLNDNNVKVVTINELEHHHHHH | soluble
12 | MITMKDIIKEGHPTLRKVAEPVPLPPSEEDKRILQSLLDYVKMSQDPELAAKYGLRPGIGLAAPQINVSKRMIAVHVTDENGTLYSYALFNPKIVSHSVQQCYLTTGEGCLSVDRDVPGYVLRYARITVTGTTLDGEEVTLRLKGLPAIVFQHEIDHLNGIMFYDRINPADPFQVPDGAIPIGR | soluble
13 | MHNNENVSGISAYLLGLIIGDGGLYKLKYKGNRSEYRVVITQKSENLIKQHIAPLMQFLIDELNVKSKIQIVKGDTRYELRVSSKKLYYYFANMLERIRLFNMREQIAFIKGLYVAEGDKTLKRLRIWNKNKALLEIVSRWLNNLGVRNTIHLDDHRHGVYVLNISLRDRIKFVHTILSSHLNPLPPE | soluble
14 | MLQKYSIIVLCCSAVLARVPVAKNCPTGWTWFLRSRGGWCMKVFTEALNQPSAEAKCKAAEAVLAGIQNKEEVAWMSKELTGTMWIGTKRTPPCMNSGVTKQCSQITSYYWTDGSTVGVQGFYWNSGEPNNQGGQGCAKLITSSSVLDDVACTTELTNGYVCGKIATF | not soluble
15 | MLPFLPEPSLSYTQQNRTAVLLLNLGTPDAPTAQAVRPYLKSFLTDRRIVELPKWLWYPILHGLVLTFRPKKSAHAYEKIWFKEGSPLEVYTARQAAALAERMPDLIVRHAMTYGNPSIADVLAELKSQGVGRLLAIPLYPQYAASSSGAAVDKVCEQLLLQRNQMSVRTISRFYDDAGYIDAMKNHILRYWAEHGRGKKLMLSFHGVPQKHYDLGDPYPDECRHTAKLLAEALELTEDEYTVSFQSQFGRAKWVTPSTQDLFGKLPKQGVTELDVFCPGFLADCLETMEEIALMGREQFYEAGGKNYRYIPCLNDNPDWIDALVALAEENLGGWR | not soluble
16 | SIEKARSAAAKEVQKMKTSDKAEATHYLQMGAYADRQSAEGQRAKLAILGISSKVVGYQAGHKTLYRVQSGNMSADAVKKMQDELKKHEVASLIRSIESK | not soluble
17 | MSLDTPRIILHNSDTAPLTHWLRAAFPQADFRECNSYEALPALIEGYRPEVVYSVRFAGTPGFPRDALFGPGGPRWIANGGAGTDHYGQWDPGQTTVTNTAGVAAEMMAEYILGGFLHFSLDVPGLQKDKAARVWNARTVRPLAGKTLLIIGLGHTGRAVAARSKAFGMKVLGTRARPKPMENVDEVHAADDLHDLLPHADFIAVSTPLIPATRGLIGAQEIAAMKSGVIFADVSRGGVVDQTALYDALSVGHVAAAALDVFETEPLPEISPLWALENVIISPHCSSVFAEWEEASFELFLQNLGRWMRGEGHHHHHH | not soluble
18 | MIENIMSLQKGLPEEISALEEDLAFTSRQIEARKKIADERQKLRERLNSVIHDCKEKIKSFKEKQTLARNNKEYDALSKQIEYEEKEIAQAEIQLQDISHAEHHAQELQKKGRELIAENRYDEISEEMMPDDVLQQQMEDLGQQVRQKKEELESIVVETAEEVAQLKAVLSEQRSVVAQQAKRLLDKYDHLKSGSIQNAVVKLDRQACSGCNTRVPTNRHTLIVQGGFYVCESCGRIVVHERLFDEAAASGQQ | not soluble
19 | MKNKPLGLWLMSLLVLVGCKANQDDLTSYVAQVEREARKEVTKLKPILEFEATPYQQHKGREPFVLPKEALVQNQPLAKADCWQPVPRAKNGPLERYPLHQLRLKGVMSSGGSISALVQTPAGSVVKVKAGQYVGINNGKVTRVDDNYLLINETLPDGLGCWNQRNVKLALK | not soluble
20 | MKKILLSLLALGCFSAANAQTFRFGPTVGGNLNISDETKTKIGFAVGAKAEMNFNNPENGWFMDASVLFNNRNRQSENYFNNETKLTQCWKYSTYSLLVPVNVGYKFRLSDNLNLLAAVGPYADFGLTGTDKVTTTDAKGHSKEEKMSSNVYGDKLFNRVNFGFDAKVGVEIAKHYQLSLSYSRGFTNIFKGGLNTKAQDLQLGFSYMF | not soluble
21 | MLPLPWWMLGVGPEEEADESSDYDMVDGHSIEVQESVPTTPVSVFHTPSQSSIIDISDQLVDLPTFLKVAKRRSSTVLETATPAKTPKIQLSERRRKFQRNDTEVMIKTGEPVVDCDETLGLNWLFDTDYPRDAGSGDLLNSTFRIDHRNHGEGTSQITESPKNRDFPLFFSSFDDTTVLFNTTIAGDIDVNERNQASGDWIFRKDKSPTNDPIENDQETDEKTKSELGDGGEIVFKEPVQSTKKTRGRKRGTSVRIEKLSTSRRTSAKKKEEKQKETETFDADKNENPSTPTAPPTMTRRHTPSRKAKTNRTFRL | not soluble
22 | MEAGSIVLGLVGKTNVGKSTFFAAATEVPVKIENRPFVTIEPNVGVGYARKRCAHVELGLPRCDPVNSLCIEGWRFIPVKLLDVAGLVPGAHRGRGLGNRFLDDVRKADALLLVVDASGSTDPEGVPVKPGSYDPVEEVGLMLGEIYEWMLQNLARDWERFARRVDTAGNVDLVTALSQRLSGFEIPRGVVAGVLEETGLGEKRLSSWSREDLRLFVKLVLERGKPAVILANKVDVPGAEENVERLGSSYPGIPVVPASALAELMLRRLAREGRVRYIPGDPDFTVKDPGGLGGKALKALELVRERVMKRWGGTGVVQAINTAVFDVLDMIAVYPVEDPNRYTDREGRILPDVILVKRGSTPRDLAYRIHTDLGKTFLYAVNAKTKQRVGEGYRLQDGDVVKIVAAAGKR | soluble
23 | MDLVDPLAEPCAVCGDKSTGTHYGVISCNGCKGFFRRTVLRDQKFTCRFNKRCVIDKNFRCACRYCRFQKCVQVGMKREAIQFERDPVGSPTSGASLNGTPFKKDRSPGYENGNSNGVGSNGMGQENMRTVPQSSSVIDALMEMEARVNQEMCNRYRRSQIFANGSGGSNGNDTDIQQGSDSGASAFAPPNRPCTTEVDLNEISRTTLLLMVEWAKTINPFMDLSMEDKIILLKNYAPQHLILMPAFRSPDTTRVCLFNNTYMTRDNNTDLNGFAAFKTSNITPRVLDEIVWPMRQLQMREQEFVCLKALAFLHPEAKGLSNSSQIMIRDARNRVLKALYAFILDQMPDDAPTRYGNILLLAPALKALTQLLIENMTLTKFFGLAEVDSLLSEFILDDINDHSTAPVSLQQHLSSPTTLPTNGVSPLNPAGSVGSVSSVSGITPTGMLSATLAAPLAIHPLQSQDSILNSEQNNHML | soluble
